{"source": "paper PMC9288967", "molecular_target": "SARS-CoV-2 spike RBD (wild type) (SARS-CoV-2) (UniProt P0DTC2)", "assay": "BLI"}
{"substance": "mNb6(108FFY) (VHH)", "values": [{"measurement": "Kd", "result": 910, "unit": "pM"}]}
